The values below come from PMC6086383.

Substrate in the data set: CC(=O)SCC[N+](C)(C)C
In words: Steady state kinetics of substrate hydrolysis, HuBChE. The class given is biochemical, human. The conditions noted are these: other: HuBChE, equation 1, 50 mM sodium phosphate pH 8.0, 22 °C.

B1: HuBChE (Homo sapiens) (protein)
chain: EDDIIIATKNGKVRGMNLTVFGGTVTAFLGIPYAQPPLGRLRFKKPQSLTKWSDIWNATKYANSCCQNIDQSFPGFHGSEMWNPNTDLSEDCLYLNVWIPAPKPKNATVLIWIYGGGFQTGTSSLHVYDGKFLARVERVIVVSMNYRVGALGFLALPGNPEAPGNMGLFDQQLALQWVQKNIAAFGGNPKSVTLFGESAGAASVSLHLLSPGSHSLFTRAILQSGSFNAPWAVTSLYEARNRTLNLAKLTGCSRENETEIIKCLRNKDPQEILLNEAFVVPYGTPLSVNFGPTVDGDFLTDMPDILLELGQFKKTQILVGVNKDEGTAFLVYGAPGFSKDNNSIITRKEFQEGLKIFFPGVSEFGKESILFHYTDWVDDQRPENYREALGDVVGDYNFICPALEFTKKFSEWGNNAFFYYFEHRSSKLPWPEWMGVMHGYEIEFVFGLPLERRDNYTKAEEILSRSIVKRWANFAKYGNPNETQNNSTSWPVFKSTEQKYLTLNTESTRIMTKLRAQQCRFWTSFFPKVLEMTGNIDEAEWEWKAGFHRWNNYMMDWKNQFNDYTSKKESCVGL
As for B1, the Km is 31 ± 4 µM, the kcat is 23±2 x10^3 min^−1 and the kcat/Km is on record as 697±14 ×10^3 min^−1 mM^−1.

In general, Km refers to the concentration of substrate that gives half-maximal velocity.
